One data set relates to target cells in vitro. The following applies: cited from earlier work.
The subject of data set [1] is human colon carcinoma LS174T. Also noted: species or system nude mice. As to conditions: mouse, in vivo. Here is the method:
The following figures (FIGS. 2 to 6) illustrate the biodistribution of carboxypeptidase G2 conjugated to PEG in nude mice bearing the human colon carcinoma LS174T. The mice were injected intravenously with the specified amount of enzyme (measured as enzyme units) using 4 mice per time point. Mice were killed at 24 h, 48 h, and 72 h after injection, in some cases at 96 h and 120 h. CPG2 activity in plasma was measured by spectrophotometric assay using methotrexate as the substrate. CPG2 activity in tumour and other tissues was measured by HPLC using methotrexate as the substrate.
The biodistribution of native CPG2 and PEG-CPG2 at 72 hours is illustrated in FIGS. 7 and 8.
FIG. 4(a). Biodistribution of CPG2 activity following use of galactosylated SB43 (clearing antibody). Mice were given CPG2 conjugated to PEG 2000 mwt, average 22 mols PEG per molecule of CPG2, at time 0. Galactosylated monoclonal antibody SB43 was given 19, 20 and 21 hrs later by IP route. The mice were killed at 24 h post CPG2.
In relation to FIG. 4(a) and 4(b) these show good tumour to normal tissue concentration and ratios following use of the clearing antibody. However, it is not possible to administer the clearing antibody as efficiently in the mouse as in the human patient.
I have investigated PEG (mol wt 5000) in the range of 13-32 PEG molecules per enzyme molecule (CPG2, mol wt 83,000); the higher the molecular weight the higher and more prolonged is the plasma concentration of enzyme achieved. The higher the plasma concentration the higher tumour concentration in the tumour model LS174T. Since one objective is to get as much enzyme into the tumour as possible and prolong the period for which an effective concentration of enzyme is sustained in the tumour the conjugate giving the highest concentration of enzyme in blood is preferred. However, the choice of conjugate also has to take account of the need to clear enzyme from blood after the desired concentration of enzyme has been achieved in the tumour(s) and before prodrug is given. A conjugate which is difficult to clear from blood would be disadvantageous so that compromise between these two requirements may be necessary.
Thus, PEG with a molecular weight of 2000 in the range 20 to 40 PEG molecules per molecule of enzyme is preferred, giving a total molecular weight in the range of around 130-160 kDal, but associated water of hydration gives a molecular size equivalent to molecules of much greater weight.

In the next data set the test system is LS174T tumours. Nature of the data set: Tumour growth delay in the LS174T tumour model (MDEPT therapy). The format is in vivo, nude mice. As to conditions: with CPG2 clearance antibody SB43 and the phenol prodrug (25 mg/kg i.p., 3 doses). Here is the method: FIG. 6. Nude mice bearing LS174T tumours were given 25 enzyme units of CPG2-PEG (22 PEG molecules, PEG 5000) followed at 20 hr, 23 h, 26 h by galactosylated SB43. At 48 h post CPG2-PEG they received 25 mg/kg of a phenol prodrug (4-[N,N-bis(2-chloroethyl)amino]-phenoxycarbonyl-L-glutamic acid) intraperiotoneally, repeated to a total of 3 doses at 1 hr intervals.
FIG. 6. Nude mice bearing LS174T tumours were given 25 enzyme units of CPG2-PEG (22 PEG molecules, PEG 5000) followed at 20 hr, 23 h, 26 h by galactosylated SB43. At 48 h post CPG2-PEG they received 25 mg/kg of a phenol prodrug intraperiotoneally, repeated to a total of 3 doses at 1 hr intervals.

In the case of `CC(NC(=O)C(CCC(=O)O)NC(=O)c1ccc(N(C)Cc2cnc3nc(N)nc(N)c3n2)cc1)C(=O)O` (stereo not drawn) [Alanine methotrexate], the “toxicity relative to native methotrexate (fold less)” value in the data set with target cells in vitro is 50-100 fold.

B1: Native ^125I-CPG2: bacterial enzyme carboxypeptidase G2, not conjugated to PEG (protein, UniProt P06621 23-415, looked up)
Carboxypeptidase G2: ALAQKRDNVLFQAATDEQPAVIKTLEKLVNIETGTGDAEGIAAAGNFLEAELKNLGFTVTRSKSAGLVVGDNIVGKIKGRGGKNLLLMSHMDTVYLKGILAKAPFRVEGDKAYGPGIADDKGGNAVILHTLKLLKEYGVRDYGTITVLFNTDEEKGSFGSRDLIQEEAKLADYVLSFEPTSAGDEKLSLGTSGIAYVQVNITGKASHAGAAPELGVNALVEASDLVLRTMNIDDKAKNLRFNWTIAKAGNVSNIIPASATLNADVRYARNEDFDAAMKTLEERAQQKKLPEADVKVIVTRGRPAFNAGEGGKKLVDKAVAYYKEAGGTLGVEERTGGGTDAAYAALSGKPVIESLGLPGFGYHSDKAEYVDISAIPRRLYMAARLIMDLGAGK
modifications: 125I label
notes: bacterial enzyme carboxypeptidase G2, not conjugated to PEG
For B1, the “clearance from blood, tumour and normal tissues” value in data set [1] is recorded as “clears rapidly”.

B2: PEG (5000) 32-CPG2: CPG2 conjugated to PEG 5000 mwt, average 32 PEG molecules per molecule of CPG2 (conjugate, UniProt P06621 23-415, looked up)
Carboxypeptidase G2: ALAQKRDNVLFQAATDEQPAVIKTLEKLVNIETGTGDAEGIAAAGNFLEAELKNLGFTVTRSKSAGLVVGDNIVGKIKGRGGKNLLLMSHMDTVYLKGILAKAPFRVEGDKAYGPGIADDKGGNAVILHTLKLLKEYGVRDYGTITVLFNTDEEKGSFGSRDLIQEEAKLADYVLSFEPTSAGDEKLSLGTSGIAYVQVNITGKASHAGAAPELGVNALVEASDLVLRTMNIDDKAKNLRFNWTIAKAGNVSNIIPASATLNADVRYARNEDFDAAMKTLEERAQQKKLPEADVKVIVTRGRPAFNAGEGGKKLVDKAVAYYKEAGGTLGVEERTGGGTDAAYAALSGKPVIESLGLPGFGYHSDKAEYVDISAIPRRLYMAARLIMDLGAGK
modifications: PEG 5000, 32 per molecule
notes: CPG2 conjugated to PEG 5000 mwt, average 32 PEG molecules per molecule of CPG2
B2: the “plasma concentration of enzyme” value in data set [1] was “high and persistent”.

B3: PEG 2000: CPG2 conjugated to PEG 2000 mwt (average 22-27 PEG molecules per CPG2) (conjugate, UniProt P06621 23-415, looked up)
Carboxypeptidase G2: ALAQKRDNVLFQAATDEQPAVIKTLEKLVNIETGTGDAEGIAAAGNFLEAELKNLGFTVTRSKSAGLVVGDNIVGKIKGRGGKNLLLMSHMDTVYLKGILAKAPFRVEGDKAYGPGIADDKGGNAVILHTLKLLKEYGVRDYGTITVLFNTDEEKGSFGSRDLIQEEAKLADYVLSFEPTSAGDEKLSLGTSGIAYVQVNITGKASHAGAAPELGVNALVEASDLVLRTMNIDDKAKNLRFNWTIAKAGNVSNIIPASATLNADVRYARNEDFDAAMKTLEERAQQKKLPEADVKVIVTRGRPAFNAGEGGKKLVDKAVAYYKEAGGTLGVEERTGGGTDAAYAALSGKPVIESLGLPGFGYHSDKAEYVDISAIPRRLYMAARLIMDLGAGK
modifications: PEG 2000, 22-27 per molecule
B3: in data set [1], the “plasma levels compared with PEG 5000” value is “lower” and the “tumour concentrations of enzyme compared with PEG 5000” value was “similar”.

B4: PEG 5000 at 22 PEGs per CPG2: CPG2 conjugated to PEG 5000, 22 PEG molecules per CPG2 (conjugate, UniProt P06621 23-415, looked up)
Carboxypeptidase G2: ALAQKRDNVLFQAATDEQPAVIKTLEKLVNIETGTGDAEGIAAAGNFLEAELKNLGFTVTRSKSAGLVVGDNIVGKIKGRGGKNLLLMSHMDTVYLKGILAKAPFRVEGDKAYGPGIADDKGGNAVILHTLKLLKEYGVRDYGTITVLFNTDEEKGSFGSRDLIQEEAKLADYVLSFEPTSAGDEKLSLGTSGIAYVQVNITGKASHAGAAPELGVNALVEASDLVLRTMNIDDKAKNLRFNWTIAKAGNVSNIIPASATLNADVRYARNEDFDAAMKTLEERAQQKKLPEADVKVIVTRGRPAFNAGEGGKKLVDKAVAYYKEAGGTLGVEERTGGGTDAAYAALSGKPVIESLGLPGFGYHSDKAEYVDISAIPRRLYMAARLIMDLGAGK
modifications: PEG 5000, 22 per molecule
notes: CPG2 conjugated to PEG 5000, 22 PEG molecules per CPG2
With B4, the “tumour growth delay compared to untreated controls” value in the data set with LS174T tumours is recorded as “significant growth delay”.

Source of the values: US20020127229A1, “Tumour therapy” (priority 1996, published 2002).
